B1: TRIM14 (parent)
chain: YARTPTLDPDTMHARLRLSADRLT
B2: STK38L (parent)
chain: FCIDSENRIGNSGVEEIKGHPFFE

Variants of: B1
Assay: protein stability index of a GFP-peptide fusion (GPS, HEK-293T) (PSI 1-6); higher = more stable
Settings: c terminus: a fixed tail appended
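Also: lentivirally expressed fusions sorted by FACS into six bins by GFP to DsRed ratio, PSI derived from sequencing read proportions per bin multiplied by bin number.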

Protein stability index of substitutions, site by site:
M12: K 2.72 | L 2.43 | N 3.63 | P 3.2 | Q 2.68 | R 3.07 | S 3.21 | T 2.74 | V 2.06 | Y 2.01
H13: A 2.62 | C 2.27 | D 3.77 | E 2.71 | F 2.63 | I 2.69 | K 2.15 | L 2.61 | M 2.69 | N 2.75 | P 3.06 | Q 2.84 | R 2.87 | S 3.17 | T 2.77 | V 2.23 | W 2.51 | Y 2.3
A14: C 2.62 | D 3.25 | E 2.67 | F 1.96 | G 3.26 | H 2.04 | I 2.13 | K 1.83 | L 2.81 | M 2.36 | N 3.08 | P 2.45 | Q 2.59 | R 2.13 | S 3.02 | T 2.61 | V 2.53 | W 2.7 | Y 1.98
R15: A 2.81 | C 1.85 | D 2.8 | E 3.25 | F 1.93 | G 3.36 | H 2.73 | I 2.87 | K 2.45 | L 2.29 | M 2.73 | N 2.61 | P 2.83 | Q 2.43 | S 3.53 | T 3.03 | V 2.04 | W 1.95 | Y 2.26
L16: C 1.93 | D 2.77 | E 3.5 | F 2.84 | H 3.27 | I 2.56 | K 3.01 | M 2.67 | N 2.57 | P 2.94 | Q 2.93 | R 3.27 | S 3.52 | T 3.02 | V 2.49 | W 2.56 | Y 2.19
R17: A 2.89 | C 2.25 | D 3.18 | E 3.04 | F 2.02 | G 3.01 | H 2.73 | I 2.81 | K 2.58 | L 2.29 | M 2.42 | N 3.2 | P 2.84 | Q 2.56 | S 3.01 | T 2.91 | V 2.31 | W 1.42 | Y 2.27
L18: A 3.6 | C 2.62 | D 3.38 | E 3.06 | F 2.04 | G 2.06 | H 2.82 | I 2.78 | K 2.51 | M 2.65 | N 3.3 | P 3.34 | Q 2.65 | R 2.81 | S 2.87 | T 2.42 | V 2.62 | W 2.18 | Y 2.93
S19: A 2.5 | C 2.42 | D 2.59 | E 2.93 | F 1.99 | G 2.21 | H 2.26 | I 2.79 | K 2.29 | L 2.33 | M 2.06 | N 3.01 | P 3.06 | Q 2.72 | R 2.88 | T 2.77 | V 3.62 | W 1.77 | Y 1.89
A20: C 2.14 | D 2.83 | E 3.03 | F 1.61 | G 2.37 | H 2.56 | I 2.85 | K 3.38 | L 2.04 | M 2.35 | N 2.55 | P 2.6 | Q 1.84 | R 1.49 | S 3.14 | T 2.5 | V 1.96 | W 3.31 | Y 2.18
D21: A 2.43 | C 2.77 | E 2.53 | F 2.34 | G 2.08 | H 3.32 | I 1.23 | K 2.06 | L 1.8 | M 1.96 | N 2.54 | P 2.06 | Q 2.91 | R 2.02 | S 3.05 | T 2.61 | V 1.52 | W 1.62 | Y 1.6
R22: A 2.57 | C 2.76 | D 3.09 | E 3.31 | F 2.52 | G 2.76 | H 2.97 | I 2.74 | K 2.33 | L 2.68 | M 2.16 | N 2.77 | P 2.31 | Q 2.59 | S 2.81 | T 2.62 | V 2.26 | W 2.01 | Y 2.62
L23: A 2.96 | C 2.51 | D 3.38 | E 4.03 | F 2.13 | G 2.58 | H 3.21 | I 2.62 | K 3.43 | M 3.06 | N 2.87 | P 2.67 | Q 3.12 | R 3.21 | S 2.73 | T 2.55 | W 2.03 | Y 2.44
T24: A 2.82 | C 2.51 | D 3.87 | E 3.02 | F 1.65 | G 3.09 | H 2.39 | I 2.84 | K 3.2 | L 1.76 | M 2.48 | N 2.92 | P 2.17 | Q 2.67 | R 3.13 | S 2.54 | V 2.21 | W 1.73 | Y 2.08

Variants of: B2
Assay: as above
Settings: c terminus: a fixed tail appended

Protein stability index: each site, then its substitutions
F1: A 4.85 | C 2.84 | D 4.9 | E 4.61 | G 4.26 | H 4.55 | I 3.24 | K 4.3 | L 3.66 | M 4.78 | N 4.4 | P 4.45 | Q 4.91 | R 5.09 | S 4.34 | T 4.42 | V 3.77 | W 3.19 | Y 2.48
C2: A 2.58 | D 3.12 | E 4.7 | F 3.12 | G 4.21 | H 1.99 | I 2.69 | K 3.37 | L 2.94 | M 3.58 | N 2.93 | P 2.39 | Q 2.33 | R 3 | S 3.61 | T 3.25 | V 2.03 | W 2.62 | Y 2.61
I3: A 2.04 | C 1.96 | D 4.02 | E 3.95 | F 2.23 | G 3.29 | H 2.75 | K 2.5 | L 2.57 | M 2.9 | N 3.43 | P 1.85 | Q 3.06 | R 2.49 | S 2.3 | T 3.6 | V 3.26 | W 2.19 | Y 2.16
D4: A 2.09 | E 2.91 | F 1.46 | G 2 | H 2.8 | I 2.24 | K 2.83 | L 1.25 | M 2.86 | N 1.89 | P 3.47 | Q 2.78 | R 1.7 | S 1.3 | T 2.44 | V 2.22 | W 1.84 | Y 2.07
S5: A 1.95 | C 2 | D 2.61 | E 3.39 | F 2.3 | G 2.53 | H 2.5 | I 2.44 | K 1.9 | L 1.06 | M 2.12 | N 2.4 | P 1.47 | Q 2.49 | R 2.21 | T 2.25 | V 1.9 | Y 1.88
E6: A 1.37 | C 1.77 | D 1.91 | F 1.46 | G 1.98 | H 2.16 | I 2.23

From the supplement of paper PMC10567573
